The target of the experiment is Gp41-HR1 (HIV-1). The experiment is described as follows: SPR. On the technique in general: SPR reads the build-up and loss of mass on a sensor chip optically.

A word on the Kd: it is the constant that tells how readily two partners part at equilibrium. By koff is commonly meant a measure of how fast the partners let go of each other. Read a high koff as a short-lived complex. The term kon denotes the rate constant with which the complex forms.

B1: D5 IgG (antibody, V domains shown)
VH: QVQLVQSGAEVRKPGASVKVSCKASGDTFSSYAISWVRQAPGQGLEWMGGIIPIFGTANYAQAFQGRVTITANESTSTAYMELSSLRSEDTAIYYCARDNPTLLGSDYWGAGTLVTVSS
VL: DIQMTQSPSTLSASIGDRVTITCRASEGIYHWLAWYQQKPGKAPKLLIYKASSLASGAPSRFSGSGSGTDFTLTISSLQPDDFATYYCQQYSNYPLTFGGGTKLEIK
Take B1: the Kd was 3.1 nM, the koff is 0.00103 s⁻¹ and the on-rate constant (kon) was found to be 335000 M⁻¹ s⁻¹.
